The stoichiometry N is the number of molecules, sites or subunits per partner or assembly.

The test deals with SARS-CoV nucleocapsid protein C-terminal domain (residues 248–365) (SARS-CoV TW1 strain). Kind of test: NMR structure.

For “SARS-CoV nucleocapsid protein C-terminal domain (residues 248–365) (domain or fragment)”, the stoichiometry N is 2.

The record behind these values is paper PMC7094413.
